In assay [1] the target is Synechocystis sp. PCC 6803 SbtA (Synechocystis sp. PCC 6803). The assay is described as follows: cryo-EM structure; free SbtA, purified; 3.50 Å resolution.
For assay [2] the target is unchanged. In words: cryo-EM structure; SbtA-SbtB complex purified in the presence of AMP; 3.15 Å resolution.
Assay [3] has as its target PII-like signaling protein SbtB. The assay is described as above.

On to “Synechocystis sp. PCC 6803 SbtA (natural protein)”, for which the stoichiometry N in assay [1] and in assay [2] was 3 throughout. With “PII-like signaling protein SbtB (natural protein)”, in assay [3], the stoichiometry N (commonly the number of molecules, sites or subunits per partner or assembly) came to 3.

Source of the values: publication PMC8352866.
